According to publication PMC10817169, “The universal suppressor mutation restores membrane budding defects in the HSV-1 nuclear egress complex by stabilizing the oligomeric lattice” (PLOS Pathogens, 2024):

B8: UL31 51-306 R229L (SUP_(UL31)Δ50-306) (domain or fragment)
chain: QELCLHERQRYRGLFAALAQTPSEEIAIVRSLSVPLVKTTPVSLPFCLDQTVADNCLTLSGMGYYLGIGGCCPACNAGDGRFAATSREALILAFVQQINTIFEHRAFLASLVVLADRHNAPLQDLLAGILGQPELFFVHTILRGGGACDPRLLFYPDPTYGGHMLYVIFPGTSAHLHYLLIDRMLTACPGYRFVAHVWQSTFVLVVRRNAEKPTDAEIPTVSAADIYCKMRDISFDGGLMLEYQRLYATFDEFPPP
notes: also called R229L_(UL31)Δ50-306; UL31 chain of NEC185Δ50-SUP_(UL31)

Experiments:
UL31 1-306 (wild type) [1] = target: T1, UL31 1-306 (wild type) (HSV-1, UniProt P10215 1-306); test: cryo-EM structure; cryoET with sub-tomographic averaging of membrane-bound coats; 1 mg/mL NEC with 400 and 800 nm LUVs (POPC:POPS:POPA = 3:1:1), 30 min on ice; conditions: both partners purified
T1 construct: also called WT UL31; UL31 chain of NEC220
T1 sequence: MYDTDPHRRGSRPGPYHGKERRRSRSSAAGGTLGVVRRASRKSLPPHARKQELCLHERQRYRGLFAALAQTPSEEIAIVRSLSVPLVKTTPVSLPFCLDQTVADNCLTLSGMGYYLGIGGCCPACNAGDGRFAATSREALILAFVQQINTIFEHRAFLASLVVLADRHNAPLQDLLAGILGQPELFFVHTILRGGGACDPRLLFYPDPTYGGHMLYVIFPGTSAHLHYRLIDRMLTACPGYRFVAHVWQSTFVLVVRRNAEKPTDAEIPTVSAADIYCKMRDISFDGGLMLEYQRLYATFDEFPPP

[2] = target: the molecule itself; test: as above
UL31 1-306 R229L_(UL31) = target: T2, UL31 1-306 R229L_(UL31) (HSV-1, UniProt P10215 1-306, R229L); test: SEC; co-expressed and co-purified UL31/UL34, tags cleaved, equimolar amounts loaded on Superdex 75 10/300 in 20 mM Na HEPES pH 7.0, 100 mM NaCl, 1 mM TCEP, 4°C; fractions analysed by SDS-PAGE; conditions: both partners purified
T2 construct: also called SUP_(UL31); UL31 chain of NEC220-SUP_(UL31)
T2 sequence: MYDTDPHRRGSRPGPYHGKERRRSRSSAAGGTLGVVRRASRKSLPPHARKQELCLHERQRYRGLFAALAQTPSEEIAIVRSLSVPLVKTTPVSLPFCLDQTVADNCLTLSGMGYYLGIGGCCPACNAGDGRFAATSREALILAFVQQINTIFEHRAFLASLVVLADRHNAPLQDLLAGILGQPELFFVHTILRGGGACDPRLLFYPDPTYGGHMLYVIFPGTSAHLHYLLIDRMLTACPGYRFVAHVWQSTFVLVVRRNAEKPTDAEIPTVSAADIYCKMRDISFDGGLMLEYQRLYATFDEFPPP

UL31 1-306 (wild type) [3] = target: T1, UL31 1-306 (wild type); test: as above; conditions: both partners purified
crystal structure = target: the molecule itself; test: crystal structure
[4] = target: B8; test: crystal structure; conditions: both partners purified

B1: UL34 1-220 (wild type) (domain or fragment)
chain: MAGLGKPYTGHPGDAFEGLVQRIRLIVPSTLRGGDGEAGPYSPSSLPSRCAFQFHGHDGSDESFPIEYVLRLMNDWAEVPCNPYLRIQNTGVSVLFQGFFHRPHNAPGGAITPERTNVILGSTETTGLSLGDLDTIKGRLGLDARPMMASMWISCFVRMPRVQLAFRFMGPEDAGRTRRILCRAAEQAITRRRRTRRSREAYGAEAGLGVAGTGFRARGD
notes: also called UL34 chain of NEC220; not shown: GST, N-terminal, cleaved
binding result (UL31 1-306 (wild type) [1]): binds

B2: NEC220 (wild-type HSV-1 nuclear egress complex, UL31 1-306 with UL34 1-220) (complex)
chain 1: MYDTDPHRRGSRPGPYHGKERRRSRSSAAGGTLGVVRRASRKSLPPHARKQELCLHERQRYRGLFAALAQTPSEEIAIVRSLSVPLVKTTPVSLPFCLDQTVADNCLTLSGMGYYLGIGGCCPACNAGDGRFAATSREALILAFVQQINTIFEHRAFLASLVVLADRHNAPLQDLLAGILGQPELFFVHTILRGGGACDPRLLFYPDPTYGGHMLYVIFPGTSAHLHYRLIDRMLTACPGYRFVAHVWQSTFVLVVRRNAEKPTDAEIPTVSAADIYCKMRDISFDGGLMLEYQRLYATFDEFPPP
chain 2: MAGLGKPYTGHPGDAFEGLVQRIRLIVPSTLRGGDGEAGPYSPSSLPSRCAFQFHGHDGSDESFPIEYVLRLMNDWAEVPCNPYLRIQNTGVSVLFQGFFHRPHNAPGGAITPERTNVILGSTETTGLSLGDLDTIKGRLGLDARPMMASMWISCFVRMPRVQLAFRFMGPEDAGRTRRILCRAAEQAITRRRRTRRSREAYGAEAGLGVAGTGFRARGD
binding result [2]: binds

B3: NEC220-SUP_(UL31) (complex)
chain 1: MYDTDPHRRGSRPGPYHGKERRRSRSSAAGGTLGVVRRASRKSLPPHARKQELCLHERQRYRGLFAALAQTPSEEIAIVRSLSVPLVKTTPVSLPFCLDQTVADNCLTLSGMGYYLGIGGCCPACNAGDGRFAATSREALILAFVQQINTIFEHRAFLASLVVLADRHNAPLQDLLAGILGQPELFFVHTILRGGGACDPRLLFYPDPTYGGHMLYVIFPGTSAHLHYLLIDRMLTACPGYRFVAHVWQSTFVLVVRRNAEKPTDAEIPTVSAADIYCKMRDISFDGGLMLEYQRLYATFDEFPPP
chain 2: MAGLGKPYTGHPGDAFEGLVQRIRLIVPSTLRGGDGEAGPYSPSSLPSRCAFQFHGHDGSDESFPIEYVLRLMNDWAEVPCNPYLRIQNTGVSVLFQGFFHRPHNAPGGAITPERTNVILGSTETTGLSLGDLDTIKGRLGLDARPMMASMWISCFVRMPRVQLAFRFMGPEDAGRTRRILCRAAEQAITRRRRTRRSREAYGAEAGLGVAGTGFRARGD
notes: also called NEC-SUP_(UL31)
binding result [2]: binds

B4: NEC220-DN_(UL34)/SUP_(UL31) (complex)
chain 1: MYDTDPHRRGSRPGPYHGKERRRSRSSAAGGTLGVVRRASRKSLPPHARKQELCLHERQRYRGLFAALAQTPSEEIAIVRSLSVPLVKTTPVSLPFCLDQTVADNCLTLSGMGYYLGIGGCCPACNAGDGRFAATSREALILAFVQQINTIFEHRAFLASLVVLADRHNAPLQDLLAGILGQPELFFVHTILRGGGACDPRLLFYPDPTYGGHMLYVIFPGTSAHLHYLLIDRMLTACPGYRFVAHVWQSTFVLVVRRNAEKPTDAEIPTVSAADIYCKMRDISFDGGLMLEYQRLYATFDEFPPP
chain 2: MAGLGKPYTGHPGDAFEGLVQRIRLIVPSTLRGGAGAAGPYSPSSLPSRCAFQFHGHDGSDESFPIEYVLRLMNDWAEVPCNPYLRIQNTGVSVLFQGFFHRPHNAPGGAITPERTNVILGSTETTGLSLGDLDTIKGRLGLDARPMMASMWISCFVRMPRVQLAFRFMGPEDAGRTRRILCRAAEQAITRRRRTRRSREAYGAEAGLGVAGTGFRARGD
notes: also called NEC-DN_(UL34)/SUP_(UL31)
binding result [2]: binds

B5: UL34 1-220 K137A_(UL34)/R139A_(UL34) (domain or fragment)
chain: MAGLGKPYTGHPGDAFEGLVQRIRLIVPSTLRGGDGEAGPYSPSSLPSRCAFQFHGHDGSDESFPIEYVLRLMNDWAEVPCNPYLRIQNTGVSVLFQGFFHRPHNAPGGAITPERTNVILGSTETTGLSLGDLDTIAGALGLDARPMMASMWISCFVRMPRVQLAFRFMGPEDAGRTRRILCRAAEQAITRRRRTRRSREAYGAEAGLGVAGTGFRARGD
notes: also called UL34 chain of NEC220-K137A_(UL34)/R139A_(UL34); not shown: GST, N-terminal, cleaved
binding result (UL31 1-306 R229L_(UL31)): binds
binding result (UL31 1-306 (wild type) [3]): binds

B6: UL34 1-220 K137A_(UL34) (domain or fragment)
chain: MAGLGKPYTGHPGDAFEGLVQRIRLIVPSTLRGGDGEAGPYSPSSLPSRCAFQFHGHDGSDESFPIEYVLRLMNDWAEVPCNPYLRIQNTGVSVLFQGFFHRPHNAPGGAITPERTNVILGSTETTGLSLGDLDTIAGRLGLDARPMMASMWISCFVRMPRVQLAFRFMGPEDAGRTRRILCRAAEQAITRRRRTRRSREAYGAEAGLGVAGTGFRARGD
notes: also called UL34 chain of NEC220-K137A_(UL34); not shown: GST, N-terminal, cleaved
binding result (UL31 1-306 R229L_(UL31)): binds
binding result (UL31 1-306 (wild type) [3]): binds

B7: UL34 1-220 R139A_(UL34) (domain or fragment)
chain: MAGLGKPYTGHPGDAFEGLVQRIRLIVPSTLRGGDGEAGPYSPSSLPSRCAFQFHGHDGSDESFPIEYVLRLMNDWAEVPCNPYLRIQNTGVSVLFQGFFHRPHNAPGGAITPERTNVILGSTETTGLSLGDLDTIKGALGLDARPMMASMWISCFVRMPRVQLAFRFMGPEDAGRTRRILCRAAEQAITRRRRTRRSREAYGAEAGLGVAGTGFRARGD
notes: also called UL34 chain of NEC220-R139A_(UL34); not shown: GST, N-terminal, cleaved
binding result (UL31 1-306 (wild type) [3]): binds

B8
binding result (crystal structure): binds

B9: UL34 15-185 D35A_(UL34)/E37A_(UL34) (domain or fragment)
chain: AFEGLVQRIRLIVPSTLRGGAGAAGPYSPSSLPSRCAFQFHGHDGSDESFPIEYVLRLMNDWAEVPCNPYLRIQNTGVSVLFQGFFHRPHNAPGGAITPERTNVILGSTETTGLSLGDLDTIKGRLGLDARPMMASMWISCFVRMPRVQLAFRFMGPEDAGRTRRILCRAA
notes: also called DN_(UL34); UL34 chain of NEC185Δ50-DN_(UL34)/SUP_(UL31); not shown: GST, N-terminal, cleaved
binding result [4]: binds

B10: UL34 15-185 (domain or fragment)
chain: AFEGLVQRIRLIVPSTLRGGDGEAGPYSPSSLPSRCAFQFHGHDGSDESFPIEYVLRLMNDWAEVPCNPYLRIQNTGVSVLFQGFFHRPHNAPGGAITPERTNVILGSTETTGLSLGDLDTIKGRLGLDARPMMASMWISCFVRMPRVQLAFRFMGPEDAGRTRRILCRAA
notes: also called UL34 chain of NEC185Δ50-SUP_(UL31); not shown: GST, N-terminal, cleaved
binding result [4]: binds
binding result (crystal structure): binds

B11: NEC185Δ50-DN_(UL34)/SUP_(UL31) (complex)
chain 1: QELCLHERQRYRGLFAALAQTPSEEIAIVRSLSVPLVKTTPVSLPFCLDQTVADNCLTLSGMGYYLGIGGCCPACNAGDGRFAATSREALILAFVQQINTIFEHRAFLASLVVLADRHNAPLQDLLAGILGQPELFFVHTILRGGGACDPRLLFYPDPTYGGHMLYVIFPGTSAHLHYLLIDRMLTACPGYRFVAHVWQSTFVLVVRRNAEKPTDAEIPTVSAADIYCKMRDISFDGGLMLEYQRLYATFDEFPPP
chain 2: AFEGLVQRIRLIVPSTLRGGAGAAGPYSPSSLPSRCAFQFHGHDGSDESFPIEYVLRLMNDWAEVPCNPYLRIQNTGVSVLFQGFFHRPHNAPGGAITPERTNVILGSTETTGLSLGDLDTIKGRLGLDARPMMASMWISCFVRMPRVQLAFRFMGPEDAGRTRRILCRAA
notes: also called NEC-DN_(UL34)/SUP_(UL31) crystallization construct; NEC185Δ50-DN34/SUP31; source: E. coli BL21(DE3) LoBSTr, co-expressed, purified (Ni Sepharose, Glutathione Sepharose, tags cleaved, Talon, Superdex 75)
binding result (crystal structure): binds

B12: NEC185Δ50-SUP_(UL31) (complex)
chain 1: QELCLHERQRYRGLFAALAQTPSEEIAIVRSLSVPLVKTTPVSLPFCLDQTVADNCLTLSGMGYYLGIGGCCPACNAGDGRFAATSREALILAFVQQINTIFEHRAFLASLVVLADRHNAPLQDLLAGILGQPELFFVHTILRGGGACDPRLLFYPDPTYGGHMLYVIFPGTSAHLHYLLIDRMLTACPGYRFVAHVWQSTFVLVVRRNAEKPTDAEIPTVSAADIYCKMRDISFDGGLMLEYQRLYATFDEFPPP
chain 2: AFEGLVQRIRLIVPSTLRGGDGEAGPYSPSSLPSRCAFQFHGHDGSDESFPIEYVLRLMNDWAEVPCNPYLRIQNTGVSVLFQGFFHRPHNAPGGAITPERTNVILGSTETTGLSLGDLDTIKGRLGLDARPMMASMWISCFVRMPRVQLAFRFMGPEDAGRTRRILCRAA
notes: also called NEC-SUP_(UL31) crystallization construct; source: E. coli BL21(DE3) LoBSTr, co-expressed, purified (Ni Sepharose, Glutathione Sepharose, tags cleaved, Talon, Superdex 75)
stoichiometry N (crystal structure): 6
